In the DeepSol protein solubility set:

Assay: soluble on expression in E. coli; label from the status in PepcDB or PDB records

Row | Sequence | soluble on expression in E. coli
1 | MGSDKIHHHHHHMKQGSLFENSQRNTPLASRVRPQTLDQFVGQAHLLGPGKILRELIENDQVSSMIFWGPPGVGKTTLAEIIARQTQATFLSFSAVDSSISKIKKIMHQAEADREIGEQTIVFVDEIHRFNKAQQDAFLPYVERGSIILIGATTENPSFEVNSALLSRCKVFVLKALATADIDQLLRNALTNPAGFSGRVTIGDAELRAIAEFANGDARMALNTLEMAVLNGDKQGDQVTVTQADLKQLITQKFVLYDKTGEEHYNIISALHKSMRNSDPDAAIYWLTRMLSGGEDPLYVARRLVRFASEDIGLADTNALNVAINVFQACQFLGMPECNVHLVEAVTYLSLAPKSNAIYKASQAAQKDVQQTRDEPVPLQLRNAPTKLMKDLGYGADYQYAHESAAKLTTMQTLPEALRGHVYYEPTEQGREGRFKARLAEIKRWQQQHRD | not soluble
2 | MVDQAQDTLRPNNRLSDMQATMEQTQAVENRVLERLNAGKTVRSFLITAVELLTEAVNLLVLQVFRKDDYAVKYAVEPLLDGDGPLGDLSVRLKLIYGLGVINRQEYEDAELLMALREELNHDGNEYAFTDDEILGPFGELHCVAALPPPPQFEPADSSLYAMQIQRYQQAVRSTMVLSLTELISKISLKKAFQK | not soluble
3 | MSSGDQNRGGVADKALQLVLEMKRNPDVLPPYNTELVRQCYQKIDELFQKNAAVVEKIRAGLPHDSTLLQPRLAAMCHIRRCMMAYVNERKNRIRSFRWKYGGALPASVRNALCDAEIQFFNEYSSTLARFQSNLGEGGVNLLLHSAPPKSLFVQVRALEDYGEFETSDGTQVQLSKDSLHSLPRQDCEMLIRQGVLELVH | not soluble
4 | MGSDKIHHHHHHMRSMTDVRRYWISLLRKICEMPLELCASDRLKKSMPVEGKKSEERRKFTHLELLGRIFCGISPFLELNRESPSTDPEERKIATRLSEFAVKSLDVATNPNCKDYMNFKEGRQPLVDAAFLVEAILRAPKVLWEDLDVSTKKRLIRELKATRKIEPYFSNWLLFSAMIETFFFFAGEEWDSTKVDLILKNVESWYKGDGAYGDGPFFRWDYYNSFVIYPMTIDVLRIISEEKTEWKELYVKVLRRAQRYAVVLERMISPEGTFPIIGRSITYRTAVFHLLSQLSLLHLLPASLSPAQVRCALTAVLRRIFENPSTFDENGWLKIGVIGSQPSLGEEYITTGSLYLCTTVFLPLGLPTSDPFWRDPCKKWTNKKVWEGEDVAPDRALED | not soluble
5 | MSFVECPYHSPAERLVAEADEGGPSAITEILKELDECYERFSRETDGAQKRRMLHCVQRALIRSQELGDEKIQIVSQMVELVENRTRQVDSHVELFEAQQELGDTAGNSGKLEHHHHHH | not soluble
6 | MSERVSEEPGLDKGDRAEECELDDPELKAIRMRVREMEEEAERLKGLSGQDKSIGVSTRPCMQTTHSKMTAGAYTEGPPQPLSAEEKKEIDKRSVYVGNVDYGSTAQDLEAHFSSCGSINRITILCDKFSGHPKGYAYIEFAERNSVDAAVAMDETVFRGRTIKVLPKRTNMPGISSTDRGGFRGRPRGNRGNYQRGQRPRGRPFRGRGRPGPLNNPY | soluble
7 | MAKVIRNRWVYRTDNKWTRYLPRRNDAVKEFDYDKNGASLKHYTEEISEEMRPKQASKLWMAWLYRDTSAEPKWTKKHVENLFGADFKVGRMEVFRNTELINTELWKIKHLIELRPVEFKNGVEPTEDDIFSTSLAPNGQCEVIQGGHVASENDLKLADGKQWTRKELGRDLNKKYHLYQSVYEQNVHTPNNITVVK | not soluble
